Laboratory results reported in US20100256217.

Legend:
[1] = target: T1, recombinant WNV capsid protein with an N-terminal hexa-histidine tag, expressed in E. coli from pQE30, Q9Q6P4
T1 chain: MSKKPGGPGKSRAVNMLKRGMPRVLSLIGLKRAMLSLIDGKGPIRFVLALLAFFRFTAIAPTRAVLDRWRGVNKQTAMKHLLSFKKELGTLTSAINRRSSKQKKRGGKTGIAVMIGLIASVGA

[2] = target: CKII-Pep, commercial CK2 substrate peptide
[3] = target: T2, recombinant WNV capsid mutant rC(S36A), N-terminal hexa-histidine tag, expressed in E. coli from pQE30, Q9Q6P4
T2 chain: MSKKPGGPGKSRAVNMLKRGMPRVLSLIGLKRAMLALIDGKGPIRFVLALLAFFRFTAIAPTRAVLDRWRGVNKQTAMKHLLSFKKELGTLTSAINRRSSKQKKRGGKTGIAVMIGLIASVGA

Protein | in vitro phosphorylation (32P-ATP kinase assay, autoradiography) [1] | dot-blot kinase assay [2] | in vitro phosphorylation (CK2 kinase assay, autoradiography) [3] | in vitro phosphorylation (kinase assay with a single recombinant subunit) [1]
recombinant CK2 (whole enzyme, Biomol) (protein) chain 1: MSGPVPSRARVYTDVNTHRPREYWDYESHVVEWGNQDDYQLVRKLGRGKYSEVFEAINITNNEKVVVKILKPVKKKKIKREIKILENLRGGPNIITLADIVKDPVSRTPALVFEHVNNTDFKQLYQTLTDYDIRFYMYEILKALDYCHSMGIMHRDVKPHNVMIDHEHRKLRLIDWGLAEFYHPGQEYNVRVASRYFKGPELLVDYQMYDYSLDMWSLGCMLASMIFRKEPFFHGHDNYDQLVRIAKVLGTEDLYDYIDKYNIELDPRFNDILGRHSRKRWERFVHSENQHLVSPEALDFLDKLLRYDHQSRLTAREAMEHPYFYTVVKDQARMGSSSMPGGSTPVSSANMMSGISSVPTPSPLGPLAGSPVIAAANPLGMPVPAAAGAQQ chain 2: not shown | purified fractions yielded was phosphorylated by CK2 | Only Cp(30-48) and CK-II-Pep peptides reacted positively to CK2 assay | the phosphorylation signal was totally absent from C(S36A) while the wild rC still was labeled in the in vitro assay | –
purified recombinant CK2α subunit protein (Biomol) (protein) MSGPVPSRARVYTDVNTHRPREYWDYESHVVEWGNQDDYQLVRKLGRGKYSEVFEAINITNNEKVVVKILKPVKKKKIKREIKILENLRGGPNIITLADIVKDPVSRTPALVFEHVNNTDFKQLYQTLTDYDIRFYMYEILKALDYCHSMGIMHRDVKPHNVMIDHEHRKLRLIDWGLAEFYHPGQEYNVRVASRYFKGPELLVDYQMYDYSLDMWSLGCMLASMIFRKEPFFHGHDNYDQLVRIAKVLGTEDLYDYIDKYNIELDPRFNDILGRHSRKRWERFVHSENQHLVSPEALDFLDKLLRYDHQSRLTAREAMEHPYFYTVVKDQARMGSSSMPGGSTPVSSANMMSGISSVPTPSPLGPLAGSPVIAAANPLGMPVPAAAGAQQ | – | – | – | Neither of the subunits was able to phosphorylate the protein by themselves
